Reference: patent publication US20110008345A1 (GlaxoSmithKline, published 2011)
Several values for one entry are separate records, joined by “and”; a condition that tells them apart may be missing. Equal values may be shown once.

T1: recombinant E. coli-expressed human IL-4 (human, UniProt P05112 25-153)
T1 sequence: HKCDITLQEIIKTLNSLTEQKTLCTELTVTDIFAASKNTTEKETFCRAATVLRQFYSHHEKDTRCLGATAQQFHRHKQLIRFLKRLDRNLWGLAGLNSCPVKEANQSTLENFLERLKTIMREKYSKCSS

T2: recombinant E. coli-expressed cynomolgus IL-4 (cynomolgus, UniProt P79339 25-153)
T2 construct: also called cyno IL-4
T2 sequence (looked up): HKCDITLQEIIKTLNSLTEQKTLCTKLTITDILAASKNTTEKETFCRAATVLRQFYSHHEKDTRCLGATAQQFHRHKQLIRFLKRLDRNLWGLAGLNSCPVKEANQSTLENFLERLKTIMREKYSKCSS


Experiments:
[1] = biological target: T3, recombinant E. coli-expressed human IL-13 (human, UniProt P35225 35-146); experiment: SPR
T3 construct: made and purified at GSK; also called Interleukin-13; rhIL-13

[2] = biological target: T3, recombinant E. coli-expressed human …; experiment: SPR, purified
[3] = biological target: T3, recombinant E. coli-expressed human …; experiment: SPR, no IL-4 bound
[4] = biological target: T3, recombinant E. coli-expressed human …; experiment: cell-based or functional assay
[5] = biological target: T1, recombinant E. coli-expressed human IL-4; experiment: cell-based or functional assay
[6] = biological target: T3, recombinant E. coli-expressed human …; experiment: SPR, human IL-4 bound first
[7] = biological target: T1, recombinant E. coli-expressed human IL-4; experiment: ELISA, IL-4 binding to IL4Ralpha-Fc
[8] = biological target: T4, recombinant E. coli-expressed cynomolgus IL-13 (cynomolgus, UniProt Q0PW92 21-132); experiment: SPR
T4 construct: also called cyno IL-13

[9] = biological target: T2, recombinant E. coli-expressed …; experiment: SPR
[10] = biological target: T3, recombinant E. coli-expressed human …; experiment: SPR; remark: listed apart in the source
[11] = biological target: T3, recombinant E. coli-expressed human …; experiment: SPR exp 3
[12] = biological target: T1, recombinant E. coli-expressed human IL-4; experiment: SPR
[13] = biological target: T1, recombinant E. coli-expressed human IL-4; experiment: SPR, poor curve fit
[14] = biological target: T1, recombinant E. coli-expressed human IL-4; experiment: SPR, purified

Row | Binder | Kd [1] [nM] | Kd [2] [nM] | IC50 [7] | koff [12] [s⁻¹] | kon [12] [M⁻¹ s⁻¹] | Kd [13] [nM] | other results
1 | 586H-TVAAPS-210 GS removed (bispecific antibody, human IgG1, kappa, also called BPC1602) heavy: not shown light: DIVMTQSPLSLPVTPGEPASISCRSSQNIVHINGNTYLEWYLQKPGQSPRLLIYKISDRFSGVPDRFSGSGSGTDFTLKISRVEADDVGIYYCFQGSHVPWTFGQGTKLEIKRTVAAPSVFIFPPSDEQLKSGTASVVCLLNNFYPREAKVQWKVDNALQSGNSQESVTEQDSKDSTYSLSSTLTLSKADYEKHKVYACEVTHQGLSSPVTKSFNRGEC |  |  | 19.2 nM |  |  |  | Kd [8]: 0.058 nM; koff [8]: 2.86e-05 s⁻¹; kon [8]: 492000 M⁻¹ s⁻¹; binding result [9]: binds; Kd [10]: 0.562 nM; Kd [11]: 0.501 nM
2 | 586H-ELQLE-147 (bispecific antibody, human IgG1, kappa) heavy: not shown light: DIVMTQSPLSLPVTPGEPASISCRSSQNIVHINGNTYLEWYLQKPGQSPRLLIYKISDRFSGVPDRFSGSGSGTDFTLKISRVEADDVGIYYCFQGSHVPWTFGQGTKLEIKRTVAAPSVFIFPPSDEQLKSGTASVVCLLNNFYPREAKVQWKVDNALQSGNSQESVTEQDSKDSTYSLSSTLTLSKADYEKHKVYACEVTHQGLSSPVTKSFNRGEC | 0.51 |  |  | 1.52e-05 | 701000 | 0.027 | 
3 | 586H-TVAAPS-25 (bispecific antibody, human IgG1, kappa) heavy: not shown light: DIVMTQSPLSLPVTPGEPASISCRSSQNIVHINGNTYLEWYLQKPGQSPRLLIYKISDRFSGVPDRFSGSGSGTDFTLKISRVEADDVGIYYCFQGSHVPWTFGQGTKLEIKRTVAAPSVFIFPPSDEQLKSGTASVVCLLNNFYPREAKVQWKVDNALQSGNSQESVTEQDSKDSTYSLSSTLTLSKADYEKHKVYACEVTHQGLSSPVTKSFNRGEC | 0.5 | 0.38 |  | 0.00012 | 127000 |  | Kd [12]: 0.95 nM; Kd [14]: 1.1 nM
4 | 586H-ELQLE-154 (bispecific antibody, human IgG1, kappa) heavy: not shown light: DIVMTQSPLSLPVTPGEPASISCRSSQNIVHINGNTYLEWYLQKPGQSPRLLIYKISDRFSGVPDRFSGSGSGTDFTLKISRVEADDVGIYYCFQGSHVPWTFGQGTKLEIKRTVAAPSVFIFPPSDEQLKSGTASVVCLLNNFYPREAKVQWKVDNALQSGNSQESVTEQDSKDSTYSLSSTLTLSKADYEKHKVYACEVTHQGLSSPVTKSFNRGEC | 0.44 |  |  | 3.57e-06 | 1.25e+06 | 0.003 | 

Continued, in another order:

Row | Kd [1] [nM] | Kd [2] [nM] | IC50 [7] | koff [12] [s⁻¹] | kon [12] [M⁻¹ s⁻¹] | Kd [13] [nM] | Binder | other results
5 | 0.4 | 0.38 | 23.8 nM and 21 nM |  |  |  | 586H-TVAAPS-210 (bispecific antibody, human IgG1, kappa) heavy: not shown light: DIVMTQSPLSLPVTPGEPASISCRSSQNIVHINGNTYLEWYLQKPGQSPRLLIYKISDRFSGVPDRFSGSGSGTDFTLKISRVEADDVGIYYCFQGSHVPWTFGQGTKLEIKRTVAAPSVFIFPPSDEQLKSGTASVVCLLNNFYPREAKVQWKVDNALQSGNSQESVTEQDSKDSTYSLSSTLTLSKADYEKHKVYACEVTHQGLSSPVTKSFNRGEC | Kd [3]: 0.381 nM; koff [3]: 0.000347 s⁻¹; kon [3]: 909000 M⁻¹ s⁻¹; Mean IC50 (whole blood phospho-STAT6) [4]: 2.68 nM; Mean IC50 (whole blood phospho-STAT6) [5]: 1.23 nM; Kd [6]: 0.325 nM; koff [6]: 0.000315 s⁻¹; kon [6]: 968000 M⁻¹ s⁻¹
6 | 0.42 |  |  | 1.63e-06 | 1.26e+06 | 0.001 | 586H-ELQLE-25 (bispecific antibody, human IgG1, kappa) heavy: not shown light: DIVMTQSPLSLPVTPGEPASISCRSSQNIVHINGNTYLEWYLQKPGQSPRLLIYKISDRFSGVPDRFSGSGSGTDFTLKISRVEADDVGIYYCFQGSHVPWTFGQGTKLEIKRTVAAPSVFIFPPSDEQLKSGTASVVCLLNNFYPREAKVQWKVDNALQSGNSQESVTEQDSKDSTYSLSSTLTLSKADYEKHKVYACEVTHQGLSSPVTKSFNRGEC | 
